Source: article PMC10646045

Tests used:
Experiment in all cases: nanopore single-molecule
[1] = test system: spike protein from lysed SARS-CoV-2 pseudovirus (SARS-CoV-2)
[2] = test system: HCoV-NL63 spike protein (HCoV-NL63); settings: 200 nM protein, 200 pM probe; SPR: DPBS running buffer, temperature not stated; nanopore: 2 M LiCl, 5 mM MgCl2, 10 mM Tris-HCl, 1 mM EDTA, pH 8, 300 mV, about 2 h incubation
[3] = target: SARS-CoV-2 spike protein S1 region (SARS-CoV-2) (UniProt P0DTC2)
[4] = test system: HCoV-OC43 spike protein (HCoV-OC43); settings: 200 nM protein, 200 pM probe; SPR: DPBS running buffer, temperature not stated; nanopore: 2 M LiCl, 5 mM MgCl2, 10 mM Tris-HCl, 1 mM EDTA, pH 8, 300 mV, about 2 h incubation
[5] = target: SARS-CoV-2 nucleocapsid protein (SARS-CoV-2) (UniProt P0DTC9)
[6] = test system: HCoV-OC43 nucleocapsid protein (HCoV-OC43); settings: 20 nM protein, 200 pM probe; SPR: DPBS running buffer, temperature not stated; nanopore: 2 M LiCl, 5 mM MgCl2, 10 mM Tris-HCl, 1 mM EDTA, pH 8, 300 mV, about 2 h incubation
[7] = test system: HCoV-229E nucleocapsid protein (HCoV-229E); settings: 20 nM protein, 200 pM probe; SPR: DPBS running buffer, temperature not stated; nanopore: 2 M LiCl, 5 mM MgCl2, 10 mM Tris-HCl, 1 mM EDTA, pH 8, 300 mV, about 2 h incubation

Substance | binding signal (% bound events) [1] | binding signal (% bound events) [2] | binding signal (% bound events) [3] | binding signal (% bound events) [4] | binding signal (% bound events) [5] | binding signal (% bound events) [6] | binding signal (% bound events) [7]
SBA end-labelled 10 kbp molecular probe | 0.6 | 0.02 | 9.82 | 0.5 |  |  | 
NBA centre-labelled 10 kbp molecular probe |  |  |  |  | 5.71 | 0.83 | 0.31
